# Data: the nanobody polyreactivity screen of Harvey et al. (2022)
# Experiment: yeast display, Sf9 membrane polyspecificity reagent, FACS + sequencing; frameworks hold sequencing errors
# Method in brief: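 A nanobody's polyreactivity label depends on the gate it was sorted from. Yeast display cells were stained with 10% biotinylated, detergent-solubilized Sf9 membrane reagent for 1 hour at 4 °C, enriched on streptavidin microbeads and sorted by FACS. The low and high (top ~1%) gates were set on anti-HA fluorescence for expression and streptavidin fluorescence for reagent binding.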
row,Sequence,polyreactivity (PSR sort gate)
1,QVQLVESGGGLVQAGGSLRLSCAASGRIFLGNVMGWSRQAPGKERELVAAISSGGSTNYADSVKGRFTISRDNAKNTVYLQMNSLKPEDTAVYYCAAYFVRDWKLYYYWGQGTHVTVSS,low polyreactivity
2,QVQLVESGGGLVQAGGSLRLSCAASGRIFLHYAMGWYRQAPGKERELVAAISRSGGSTYYADSVKGRFTISRDNAKNTVYLQMNSLKPEDTAVYYCAAAYPFKTTEGYFYWGQGTQVTVSS,high polyreactivity
3,QVQLVESGGGLVQAGGSLRLSCAASGRIFLINALGCYRQAPGKERELVAAIRTGGNTYYADSVKGRFTISRDNAKNTVYLQMNSLKPEDTAVYSCAADRIYPYYRWSGAHRSDVDYWGQGTQVTVSS,low polyreactivity
4,QVQLVESGGGLVQAGGSLRLSCAASGRIFLINGMGWYRQAPGKERELVAVITQSGGTYYADSVKGRFTISRDNAKNTVYLQMNSLKPEDTAVYYCAASSYGASRGYWGQGTQVTVSS,high polyreactivity
5,QVQLVESGGGLVQAGGSLRLSCAASGRIFLKYSMGWYRQAPGKERELVAAISRGGSTYYADSVKGRFTISRDNAKNTVYLQMNSLKPEDTAVYYCAATSYRRTGYNYWGQGTQVTVSS,high polyreactivity
6,QVQLVESGGGLVQAGGSLRLSCAASGRIFLNYAMGWYRQAPGKERELDAAISRRGASTYYADSVKGRFTISRENAKNTVYLQMNSLKPEDTAVYYCATVPGKSGDYWGLGTQVTVSS,high polyreactivity
7,QVQLVESGGGLVQAGGSLRLSCAASGRIFLNYDMGWYTQAPGKERELVADISISGSTDYADSVKWRFTISRDNAKKTVYLQMNCLKPEDTAVYYCATSFYVSDYYVPYEMGYWGQGTQVTVSS,low polyreactivity
8,QVQLVESGGGLVQAGGSLRLSCAASGRIFLQYAMGWYRQAPGKERELVAGISSRGGSTYYADSVKGRFTISRDNAKNTVYLQMNSLKPEDTAVYYCAAQTKRIRYVYKHYYWGQGTQVTVSS,high polyreactivity
9,QVQLVESGGGLVQAGGSLRLSCAASGRIFLRNAMGWYRQAPGKERELVAAISSSGGRTYYADSVKGRFTISRDNAKNTVYLQMNSLKPEDTAVYYCNARWHGSFDYWGQGTQVTVSS,low polyreactivity
10,QVQLVESGGGLVQAGGSLRLSCAASGRIFLRTAMGWYRLAPAKERELVASIDSSGGSAYYADSVQGRFTISRDNAKNTVYLQMNSLKPEDTAVFYCNADAYGTPEFTSYAVRYDYGGQGTQVTVSS,low polyreactivity
11,QVQLVESGGGLVQAGGSLRLSCAASGRIFLRYAMGWYRQAPGKERELVAAIDFSAGSTYYADSVKGRFTISRDNAKNTVYLQMNSLKPEDTAVYYCATRLGVLYDYWGQGTQVTVSS,low polyreactivity
12,QVQLVESGGGLVQAGGSLRLSCAASGRIFLRYAMGWYRQAPGKERELVAVITWSGGSTNYADSVKGRFTISRDNAKNTVYLQMNSLKPEDTAVYYCAVDNSGRSWPYDYWGQGTQVTVSS,low polyreactivity
13,QVQLVESGGGLVQAGGSLRLSCAASGRIFLRYAMGWYRQAPGKERELVAVITWSGGSTNYADSVKGRFTISRDNAKNTVYLQMNSLKREDTAVYYCAVDNTGRSWPYDYWGQGTQVTVSS,low polyreactivity
14,QVQLVESGGGLVQAGGSLRLSCAASGRIFLRYVMGWYRQAPGKERELVAAIRSNGGSTYADSVKGRFTISRDNAKNTVYLQMNSLKPEDTAVYYCAARYFNTKGSFVVGYGYWGQGSQVTVSS,high polyreactivity
15,QVQLVESGGGLVQAGGSLRLSCAASGRIFLSNAMGWYRQAPGKERELVAAISWTGGSTYYADSVKGRFTISRDNAKNTVYLQMNSLKPEDTAVYYCAASTVGQTYSDYVDTYDYWGQGTQVTVSS,low polyreactivity
16,QVQLVESGGGLVQAGGSLRLSCAASGRIFLSNGMGWYRHAPGKERELVAGITTGGGDSTYYADSVKGRFTISRDNAKHTVYLQMNSLKPEDTAVYYCNADSVYAGFDYWGQGPQVTVSS,low polyreactivity

row,Sequence,polyreactivity (PSR sort gate)
1,QVQLVESGGGLVQAGGSLRLSCAASGRIFLSYAMGWYRQAPGKERELVAAITDNGGDTYYADSVKGRFTISRDNAKNTVYLQMNILKPEDTAVYYCAVDGGEFSSYGYWGQGTQVTVSS,low polyreactivity
2,QVQLVESGGGLVQAGGSLRLSCAASGRIFLTYAMGWYRQAPGKERELVAAISTSGTRTYYADSVKGRFTISRDNAMNTVYLQMNSLKPEDTAVYYCAREKYNYRTYEYWGQGTQVTVSS,high polyreactivity
3,QVQLVESGGGLVQAGGSLRLSCAASGRIFLVYGMGWYREAPGKERELVASITYRGGSTYYADSVKGRFTISRDNAKNTVYLQMNSLKPEDTAVYYCADDGAFYASTEMDYWGQGTQVNVSS,low polyreactivity
4,QVQLVESGGGLVQAGGSLRLSCAASGRIFLVYVMGWYRQAPGKERELVAAISASDGSTYYADSVKGRFTISRDNAKNTVYLQMNSLKPEDTAVYYCAEWGYSLDSNSYRELNYWGQGTQVTVSS,low polyreactivity
5,QVQLVESGGGLVQAGGSLRLSCAASGRIFLYAMGWYRQAPGKERELVAAINSGGSTNYADSVKGRFTISRDNAKNTVYLQMNSLKPEDTAVYYCAAEVLYWYRYYYWGQGTQVTVSS,low polyreactivity
6,QVQLVESGGGLVQAGGSLRLSCAASGRIFLYYAMGWYRQAPGKERDFVAAITYIGGSTYYADSVKGRFTISRDNAKNTVYLQMNSLKPEDTAVYDCATDGYRIDVYHPVYRYDYWGQGTQVTVSS,low polyreactivity
7,QVQLVESGGGLVQAGGSLRLSCAASGRIFNEYAMGWYRQAPGKERELVAAITYSDDSTYYADSVKGRFTISRDNAKNTVYLQMNSLKPEDTAVYYCNADTPVWDGHAYPVDYWGQGTQVTVSS,low polyreactivity
8,QVQLVESGGGLVQAGGSLRLSCAASGRIFNKNAMGWYRQAPGKERELVAAITYSGGSTYYADSVKGRFTISRDNAKNTVYLQMNSLKPEDTAVYYCARDLYYVYSFAPYRYEYWGQGTQLTVSS,low polyreactivity
9,QVQLVESGGGLVQAGGSLRLSCAASGRIFNLNAMGWYRQAPGKERELVAAISKSGTRTYYADSVKGRFTISRDNAKNTVYLQMNSLKQEDTAVYYCAAEALYYDRLGWVYLRYDYWGQGTQVTVSS,high polyreactivity
10,QVQLVESGGGLVQAGGSLRLSCAASGRIFNLYDMGWYRQAPGKERELVAAIRIGDRTYYADSVKGRFTISRDNAKNTVYLQMNSLKPEDTAVYYCNREYLSNRDKRFYYWGQGTQVTVSS,low polyreactivity
11,QVQLVESGGGLVQAGGSLRLSCAASGRIFNLYGMGWYRQAPGKEREFVATITWSGVTTYADSVKGRFTISRDNAKNTVYLQMNSLKPEDTAVYYCAADYRYRTRWYDYWGQGTQVTVSS,high polyreactivity
12,QVQLVESGGGLVQAGGSLRLSCAASGRIFNNYAMGWYRPAPGKERELVAAISTSGGSTYYADSVKGRFTISRDNAKNTVYLQMNSLKPEDTAVYYCNAVSRKRHYAPSYDYWGQGTQVTVSS,high polyreactivity
13,QVQLVESGGGLVQAGGSLRLSCAASGRIFNPNAMGWDRQAPGKERELVAAISTSGDSTYADSVKGRFTISRDNAKNTVYLQMNSLKPEDTAVYYCAATSGRRTTRWGRYGYWGQGTQVTVSS,high polyreactivity
14,QVQLVESGGGLVQAGGSLRLSCAASGRIFNQYAMGWYRQAPGKERELVAAISRRGGSTYYADSVKGRFTISRDNAKNTVYLQMNSLKPEDTAVYYCAAVGGYASYFHLYYYWGQGSQVTVSS,high polyreactivity
15,QVQLVESGGGLVQAGGSLRLSCAASGRIFNQYGMGWYRQAPGKERELVASITLTDGSTYYADSVKGRFTISRDNAKNTVYLQMNSLKPEDTAVYYCAARISGGSTFRYQRMYYWGQGTQVTVSS,low polyreactivity
